Laboratory results from the supplement of paper PMC12042874.
± gives the uncertainty stated by the source.

Test: amyloid nucleation score (Sup35N fusion, yeast selection) (log enrichment); library NNK1; higher = more nucleation; inactive = no reads after selection
How it was run: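 Plasmid inserts were Illumina-sequenced at input and output from psi-negative yeast expressing Sup35N fused to peptides of 20 random codons. The yeast were induced with 100 μM copper sulfate for 24 hours and grown 7 days at 30°C on medium lacking adenine and uracil, and sequences with under 100 input reads were excluded. Nucleation score is the DiMSum log enrichment of output over input reads, centred on the mode score of non-aggregating sequences.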

Substance	amyloid nucleation score
KRLRTKFYVVLYFSYMSSTL	-1.52 ± 1.5
KRLTMVVRGKLSVLHP	3.74 ± 0.12
KRSKN	1.37 ± 0.8
KRSSFYHWQWHGKSL	-0.718 ± 0.51
KRVIAMLTLIFG	0.534 ± 0.64
KSAEIKEQCTTWFMYTMLGA	-0.785 ± 0.44
KSDRIKLYNKCWELAVLMKK	-0.555 ± 1.1
KSGLRTLFSGVGHCWDALVY	0.198 ± 0.45
KSGVRYNRGRKYASTQ	-0.302 ± 0.39
KSLENDHIVSVCSFLISRTR	3.97 ± 0.081
KSLVKYKWNLTFILY	inactive
KSSCRDLIVDVNTGE	0.765 ± 0.38
KSTSRPCHWIYWMWMVYPRY	0.445 ± 0.81
KSWWNDVFVYVYQILEFHCR	0.032 ± 1.2
KTASLRRVG	-0.071 ± 0.32
KTLRNNLLFIQSTPK	0.1 ± 0.28
KTRSNMNFHCS	0.195 ± 0.6
KTSCQSFVGR	-0.403 ± 0.54
KTVVSELSVVNEVVA	-0.359 ± 0.31
KVAHCCSDMYSWRVGKMMSM	0.024 ± 0.79
KVCAVTM	0.095 ± 0.3
KVFVSALCC	4.19 ± 0.067

Substance	amyloid nucleation score
KVGHANVADFPIWRRNLFG	-0.544 ± 0.84
KVGLDIWGASGTN	0.525 ± 0.48
KVGLSMKYRPYS	2.29 ± 0.22
KVHTGTSTRLKLYMHSTLRT	0.454 ± 0.25
KVIFYEFPTSQRFMGSMYDM	1.88 ± 0.19
KVSEDMYSHFQQSFSQAIIV	inactive
KVTLNFRSHSLENCDAYNKY	3.15 ± 0.12
KVYYRVKMHYSLAGEARTDT	0.621 ± 0.84
KWCISKSFFVYPTMMR	0.437 ± 0.44
KWGHSENVVVYFDGAFSWVS	0.16 ± 0.6
KWIGIYINFDGYSVGS	7.598 ± 0.044
KWILVRSLESIHKPTL	0.174 ± 0.89
KWLLTDDLRSGISAWWECPL	-0.233 ± 0.62
KWLTFVMDMSDLCYSSFNVN	inactive
KWSPIAGSTMIMEMCH	-1.08 ± 0.83
KWYGILNVVDDRRSIGRYDM	-0.281 ± 0.58
KYDRCYYSRMNPSCVYIPYS	2.47 ± 0.4
KYFGFSVHSLLCYNRSLFLS	-0.055 ± 0.35
KYIRISVDGIRFKEWCEFGS	0.777 ± 0.14
KYKESMYLRLCFRYVWTNYS	0.441 ± 0.61
KYLACILCSKLLTQSNSRNI	7.687 ± 0.058
KYLSYTVVCGLTNDSWHLMH	-0.196 ± 0.46

Substance	amyloid nucleation score
KYLVLHILHIWMCHRYVWGM	-0.973 ± 0.6
KYPSKSSELSGYEDSRNFVG	0.806 ± 0.62
KYRDLGSFMQSWAARHGTLL	-0.226 ± 0.68
KYYMSLDFWGHALH	2.76 ± 0.15
LACWLTTRNKCILNSLITLV	0.08 ± 1.1
LAFTSLSNLYEDMCYQDWMV	1.82 ± 0.36
LAGNVS	0.503 ± 0.67
LALGPLHSVLRGVINMGYGI	-0.88 ± 1.7
LAMRAMIRNVLFTKSQLHDR	-0.154 ± 0.38
LAPGGDWYY	inactive
LAPMDLCGGSVAFR	0.47 ± 0.4
LAPNDGGRALSVDMRGWCDW	inactive
LARDYGFD	0.051 ± 0.3
LATFVWPGHGRV	1.65 ± 0.14
LATGHVFYGFG	-0.116 ± 0.36
LAVDMQRF	0.224 ± 1.4
LAVEWWTNVVYVFYAYFANR	0.001 ± 0.25
LAYSNWALSCGIHIFRVTTS	0.792 ± 0.27
LCAREFVDCEAILVRLWFVY	-1.18 ± 1.1
LCFLTSIQCTALLDHQLVPR	6.17 ± 0.079
LCFLWIGVP	-0.241 ± 1
LCFVRMRYLFESDCPRHRKH	0.384 ± 0.65

Substance	amyloid nucleation score
LCGEGRFLQTWRSLSFP	-0.865 ± 0.39
LCGIVRKILQTSKRSR	0.063 ± 0.49
LCISARDLNNFGRNHMHFLL	-0.296 ± 0.34
LCKDLAKHHN	4.97 ± 0.056
LCLILVGSY	0.062 ± 0.79
LCNLGMLRLSGMENRINRVG	1.29 ± 0.6
LCQGEKISPVKQHHVYCLGE	0.649 ± 0.85
LCSFKFSVRPLCKKRFKVRV	0.099 ± 0.34
LCSMWEGRGADEMLAICQGA	0.152 ± 0.59
LCSNC	inactive
LCTRFWDTMYLSSGYFGFLC	1.03 ± 0.46
LCYAGVVLQYVILDHKRSCD	6.233 ± 0.059
LDIDTKW	-0.204 ± 0.38
LDINDTMYETNCFG	-0.488 ± 0.58
LDKSGSLVPKRKVTLKDKQR	-0.375 ± 0.41
LDLINRMGNVGMLIMDCYKI	0.159 ± 0.43
LDRAVHPGVVSPWSQVTRTM	0.749 ± 0.38
LDRFVYY	1.41 ± 0.69
LDTVYNVSMKKIKVTSIGQC	-0.537 ± 0.47
LEGLRQDEVGRSASKTVKYS	1.18 ± 0.76
LELTC	1.6 ± 0.53
